Numbering of substitutions follows the chain as printed.
Columns and labels:
human ferroportin 1 [1] = target: T1, human ferroportin 1 (human, UniProt Q9NP59 1-571); assay: cell-based or functional assay
T1 sequence: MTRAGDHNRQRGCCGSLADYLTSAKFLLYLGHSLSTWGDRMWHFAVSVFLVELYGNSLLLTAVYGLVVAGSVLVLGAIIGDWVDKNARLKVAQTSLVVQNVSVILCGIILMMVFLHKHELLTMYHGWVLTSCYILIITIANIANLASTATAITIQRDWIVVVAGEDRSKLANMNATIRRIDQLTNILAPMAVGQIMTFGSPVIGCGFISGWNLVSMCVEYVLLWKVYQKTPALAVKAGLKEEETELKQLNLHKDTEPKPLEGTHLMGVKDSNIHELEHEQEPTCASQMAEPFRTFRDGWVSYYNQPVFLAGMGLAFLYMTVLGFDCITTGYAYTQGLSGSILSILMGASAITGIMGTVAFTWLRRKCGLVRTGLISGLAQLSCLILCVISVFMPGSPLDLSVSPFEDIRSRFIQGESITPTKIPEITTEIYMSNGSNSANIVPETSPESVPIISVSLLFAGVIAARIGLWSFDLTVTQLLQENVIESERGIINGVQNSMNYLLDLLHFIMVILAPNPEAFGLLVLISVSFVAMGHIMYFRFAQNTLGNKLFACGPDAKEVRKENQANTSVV

[2] = target: T2, human FPN1 C-terminally fused with GFP (human, UniProt Q9NP59 1-571, GFP reporter fused to the C-terminus ("FPN1 is C-terminally fused with GFP"). It is left out because the patent gives no letters for it.); assay: cell-based or functional assay
T2 sequence: T1 sequence

[3] = target: T2, human FPN1 C-terminally fused with GFP; assay: cell-based or functional assay; remark: listed apart in the source
[4] = target: T2, human FPN1 C-terminally fused with GFP; assay: SPR, Biacore T100, 25 C, 1:1 model; FPN1-GFP captured from cell lysate on rabbit anti-GFP antibody, Mab injected
Experimental: (§1) The affinities of FPN1 binding Fabs and Mabs may be determined on Biacore T100 and using 1:1 binding model in the Biacore T100 evaluation software (BIAcore® AB, Upsala, Sweden). […] FPN1 is C-terminally fused with GFP. Expression of FPN1-GFP is induced by 1-10 ng/mL doxycycline for 1-24 hours. Induced cells are harvested by scraping off from flasks and then washed with 1×PBS. Cell pellets can be stored at −80° C. before use. About five million induced cells are resuspended in 10 mM phosphate buffer with 0.2% Tween-20 and protease inhibitors, e.g., Complete™ Protease Inhibitor Cocktail Tablet (Roche Diagnostics Corp., Indianapolis, Ind.). Three cycles of freeze/thaw/sonication are used to lyse the cells. The lysate is diluted two-fold with Biacore running buffer and centrifuged to remove debris.
(§2) On Biacore T100, rabbit anti-GFP antibody or goat anti-GFP antibody is immobilized onto flow cell 1 to 4 of a CMS chip at 5000-15000 Rus. FPN1-GFP is captured onto flow cell 2, 3, or 4 from the lysate of induced cells. Flow cell 1 is used as reference. Then all flow cells are injected with different concentrations of antibodies to evaluate the binding and kinetics.

human ferroportin 1 [5] = target: T1, human ferroportin 1; assay: inhibition of binding of 30 nM biotinylated hepcidin to FPN/293 cells, ELISA of lysate; antibody at 125 nM; mean
Experimental: (§3) Next, 65 μL of lysing buffer (0.5% Triton X-100, 10 mM EDTA) are added to all the wells and the plates are shaken for 10 minutes. Next, 50 μL of the solution in each well is transferred to individual wells of a streptavidin coated Greiner microtiter plate (60 μL of 2 μg/mL streptavidin (Sigma, St. Louis, Mo.; catalog no. S4762) in PBS, incubated at 4° C. overnight, washed 2 times (0.1% Tween 20, TBS), blocked with casein/PBS), and then incubated for one hour at room temperature. […] After incubating one hour at room temperature, the plate is washed 4× and 50 μL of OPD substrate (Sigma; catalog no. P6912) is added. The reaction is stopped with 100 μL 1 N HCl after 4 minutes. Absorbance at 490 nm (A₄₉₀) is read using an appropriate ELISA plate reader.

human ferroportin 1 [6] = target: T1, human ferroportin 1; assay: inhibition of binding of 30 nM biotinylated hepcidin to FPN/293 cells, ELISA of lysate; antibody at 500 nM; mean
Experimental: as §3

human ferroportin 1 [7] = target: T1, human ferroportin 1; assay: inhibition of binding of 30 nM biotinylated hepcidin to FPN/293 cells, ELISA of lysate; antibody at 7.8 nM; mean
Experimental: as §3

human ferroportin 1 [8] = target: T1, human ferroportin 1; assay: inhibition of binding of 30 nM biotinylated hepcidin to FPN/293 cells, ELISA of lysate; antibody at 2000 nM; mean
Experimental: as §3

human ferroportin 1 [9] = target: T1, human ferroportin 1; assay: inhibition of binding of 30 nM biotinylated hepcidin to FPN/293 cells, ELISA of lysate; antibody at 31.25 nM; mean
Experimental: as §3

[10] = target: T2, human FPN1 C-terminally fused with GFP; assay: SPR, Biacore T100, 37 C, 1:1 model; FPN1-GFP captured from cell lysate on rabbit anti-GFP antibody, Fab injected
Experimental: as §1, §2

[11] = target: T2, human FPN1 C-terminally fused with GFP; assay: SPR, Biacore T100, 37 C, 1:1 model; FPN1-GFP captured from cell lysate on goat anti-GFP antibody, Fab injected; n = 3
Experimental: as §1, §2

[12] = target: T2, human FPN1 C-terminally fused with GFP; assay: SPR, Biacore T100, 37 C, 1:1 model; FPN1-GFP captured from cell lysate on goat anti-GFP antibody, Fab injected; n = 4
Experimental: as §1, §2

Control human IgG4 (antibody) was tested, and the Percentage inhibition of mature hepcidin induced increase in cellular ferritin, Caco-2 cells, antibody at 2.22E-7 M (human ferroportin 1 [1]) was 24.2%, the Percentage inhibition of mature hepcidin induced increase in cellular ferritin, Caco-2 cells, antibody at 2.47E-8 M (human ferroportin 1 [1]) was 22.1% and the Percentage inhibition of mature hepcidin induced increase in cellular ferritin, Caco-2 cells, antibody at 2.7E-9 M (human ferroportin 1 [1]) was 22.4%. It also gave a Percentage inhibition of mature hepcidin induced increase in cellular ferritin, Caco-2 cells, antibody at 3.0E-10 M (human ferroportin 1 [1]) of 15.5%, a Percentage inhibition of mature hepcidin induced increase in cellular ferritin, Caco-2 cells, antibody at 6.67E-7 M (human ferroportin 1 [1]) of 18.7% and a Percentage inhibition of mature hepcidin induced increase in cellular ferritin, Caco-2 cells, antibody at 7.4E-8 M (human ferroportin 1 [1]) of 21.1%. The Percentage inhibition of mature hepcidin induced increase in cellular ferritin, Caco-2 cells, antibody at 8.0E-9 M (human ferroportin 1 [1]) was 16.1% and the Percentage inhibition of mature hepcidin induced increase in cellular ferritin, Caco-2 cells, antibody at 9.0E-10 M (human ferroportin 1 [1]) was 17.5%.

B1: Mab 1G9 (antibody, mouse IgG1, kappa, V domains shown)
VH: QVQLKQSGAELVRPGTSVKVSCKASGYAFTSFLIEWLKQRPGQGLEWIGTINPRTGGTKYNEKFRGKATLTADKSSSTAYMQLNSLTSDDSAVYFCVREFFDYWGQGTSLTVSS
VL: ETTVTQSPSYLAASPGETITINCRASKSISKYLAWFQEKPGKTNKLLIYAGSKLHSGIPSRFSGSGSGTDFTLTISSLEPEDFAMYYCFQHNEYPYTFGGGTKLELKR
notes: also called mouse 1G9; murine Mab 1G9
For B1, the “Percent (%) Inhibition of Mature Human Hepcidin-induced Internalization and Degradation, Mab at 7.4 nM” value [2] was 24.3%, the “Percent (%) Inhibition of Mature Human Hepcidin-induced Internalization and Degradation, Mab at 22 nM” value [2] was 49.9% and the “Percent (%) Inhibition of Mature Human Hepcidin-induced Internalization and Degradation, Mab at 67 nM” value [2] was 61.8%. The “Percent (%) Inhibition of Mature Human Hepcidin-induced Internalization and Degradation, Mab at 200 nM” value [2] was 62.4%, the “Percent (%) Inhibition of Mature Human Hepcidin-induced Internalization and Degradation, Mab at 600 nM” value [2] was 67.9% and the “Absolute IC50 of inhibition of hepcidin-25-induced internalization and degradation of FPN1-GFP” value [3] was 18.8 nM. For the same molecule, the “Relative IC50 of inhibition of hepcidin-25-induced internalization and degradation of FPN1-GFP” value [3] was 9.2 nM, the “Top % Inhibition of hepcidin-25-induced internalization and degradation of FPN1-GFP” value [3] was 69% and the Kd [4] was 0.728 nM. The koff [4] was 9.81e-05 s⁻¹ and the kon [4] was 135000 M⁻¹ s⁻¹.

B2: Mab L2.2-4 (antibody, human IgG4 S228P, kappa, F234A L235A, V domains shown)
VH: QVQLVQSGAEVKKPGSSVKVSCKASGYAFTSFLIEWVRQAPGQGLEWMGTSNPRTGGRKYKEKFRGRVTITADKSTSTAYMELSSLRSEDTAVYYCAREFFDYWGQGTTVTVSS
VL: DIQMTQSPSSLSASVGDRVTITCRASKSISKYTAWYQQKPGKAPKLLIYAGSKLRSGVPSRFSGSGSGTDFTLTISSLQPEDFATYYCQQHNEYPYTFGGGTKVEIKR
B2 was tested, and the “Absolute IC50 of inhibition of hepcidin-25-induced internalization and degradation of FPN1-GFP” value [3] was 6.2 nM, the “Relative IC50 of inhibition of hepcidin-25-induced internalization and degradation of FPN1-GFP” value [3] was 4.8 nM and the “Top % Inhibition of hepcidin-25-induced internalization and degradation of FPN1-GFP” value [3] was 81.6%. For the same molecule, the “EC50 of inhibition of mature hepcidin induced increase in cellular ferritin, Caco-2 cells” value (human ferroportin 1 [1]) was 193 nM, the “Percentage inhibition of mature hepcidin induced increase in cellular ferritin, Caco-2 cells, Mab at 2.22E-7 M” value (human ferroportin 1 [1]) was 53.8% and the “Percentage inhibition of mature hepcidin induced increase in cellular ferritin, Caco-2 cells, Mab at 2.47E-8 M” value (human ferroportin 1 [1]) was 30.1%. For the same molecule, the “Percentage inhibition of mature hepcidin induced increase in cellular ferritin, Caco-2 cells, Mab at 2.7E-9 M” value (human ferroportin 1 [1]) was 39.6%, the “Percentage inhibition of mature hepcidin induced increase in cellular ferritin, Caco-2 cells, Mab at 3.0E-10 M” value (human ferroportin 1 [1]) was 24.1% and the “Percentage inhibition of mature hepcidin induced increase in cellular ferritin, Caco-2 cells, Mab at 6.67E-7 M” value (human ferroportin 1 [1]) was 61.7%. For the same molecule, the “Percentage inhibition of mature hepcidin induced increase in cellular ferritin, Caco-2 cells, Mab at 7.4E-8 M” value (human ferroportin 1 [1]) was 40.6%, the “Percentage inhibition of mature hepcidin induced increase in cellular ferritin, Caco-2 cells, Mab at 8.0E-9 M” value (human ferroportin 1 [1]) was 39.5% and the “Percentage inhibition of mature hepcidin induced increase in cellular ferritin, Caco-2 cells, Mab at 9.0E-10 M” value (human ferroportin 1 [1]) was 24.4%. The “% Inhibition” value (human ferroportin 1 [5]) was 76.5%, the “% Inhibition” value (human ferroportin 1 [6]) was 99.8% and the “% Inhibition” value (human ferroportin 1 [7]) was -0.1%. For the same molecule, the “% Inhibition” value (human ferroportin 1 [8]) was 85.1% and the “% Inhibition” value (human ferroportin 1 [9]) was 27.5%.

B3: Fab 34A9 (Fab, V domains shown)
VH: B1 VH with S31N, R54E
VL: ETTVTQSPSYLAASPGETITINCRASKSISKYLAWFQEKPGKTNKLLIYAGSTLHSGIPSRFSGSGSGTDFTLTISSLEPEDFAMYYCQQHNEYPYTFGGGTKLELK
notes: Mouse Fab; also called mouse Fab 34A9
In the case of B3, the Kd [10] is reported as 41.5 nM, the koff [10] is reported as 0.00262 s⁻¹ and the kon [10] is reported as 63200 M⁻¹ s⁻¹.

B4: Fab 3D8 (Fab, V domains shown)
VH: B2 VH with R58T
VL: DIQMTQSPSSLSASVGDRVTITCRASKSISKYTAWYQQKPGKAPKLLIYAGSKLHSGVPSRFSGSGSGTDFTLTISSLQPEDFATYYCQQHNEYPYTFGGGTKVEIK
notes: Humanized form of mouse Fab 1G9 (VH1-69 and O2 frameworks); also called human 3D8
For B4, the Kd [10] was 10.4 nM, the koff [10] was 0.002 s⁻¹ and the kon [10] was 192000 M⁻¹ s⁻¹. For the same molecule, the Kd [11] was 6.29 nM, the koff [11] was 0.00206 s⁻¹ and the kon [11] was 328000 M⁻¹ s⁻¹.

B5: Fab 4A10-3 (Fab, V domains shown)
VH: B2 VH
VL: B4 VL with S56W
notes: also called human 4A10-3
B5 was tested, and the Kd [12] was 1.76 nM, the koff [12] was 0.00148 s⁻¹ and the kon [12] was 844000 M⁻¹ s⁻¹.

B6: Fab Combi11 (Fab, V domains shown)
VH: B2 VH with G57R, R58T, E62S
VL: B4 VL with L54R, S56W
notes: also called human Combi11
Work on B6 yielded a Kd [11] of 2.4 nM, a koff [11] of 0.00637 s⁻¹ and a kon [11] of 2.31e+06 M⁻¹ s⁻¹.

B7: Fab L2.2-4 (Fab, V domains shown)
VH: B2 VH
VL: B4 VL with H55R
notes: also called human L2.2-4
For B7, the Kd [11] was 1.96 nM, the koff [11] was 0.00079 s⁻¹ and the kon [11] was 431000 M⁻¹ s⁻¹.
